Assay results taken from PMC5727232, “Structural basis for genome wide recognition of 5-bp GC motifs by SMAD transcription factors”.

Columns and labels:
Smad4 MH1 domain [1] = molecular target: T1, Smad4 MH1 domain (Homo sapiens, UniProt Q13485 10-140); assay: ITC; EMSA: 20 mM Tris pH 7.2, 80 mM NaCl, 2 mM DTT, 7.5 nM Cy5-DNA, 30 min room temperature, gel at 20 C; ITC: Tris pH 7.0, 20 C; conditions: protein: recombinant, tags: N-terminal His, cleaved (TEV or 3C), blunt
Smad4 MH1 domain [2] = molecular target: T1, Smad4 MH1 domain; assay: EMSA; EMSA: 20 mM Tris pH 7.2, 80 mM NaCl, 2 mM DTT, 7.5 nM Cy5-DNA, 30 min room temperature, gel at 20 C; ITC: Tris pH 7.0, 20 C; conditions: protein: recombinant; tags: N-terminal His, cleaved (TEV or 3C); label: 5' Cy5; blunt
Smad3 MH1 domain [3] = molecular target: T2, Smad3 MH1 domain (Homo sapiens, UniProt P84022 1-141); assay: as above; conditions: protein: recombinant; tags: N-terminal His-TEV, cleaved; label: 5' Cy5; blunt
Smad4 MH1 domain [4] = molecular target: T1, Smad4 MH1 domain; assay: EMSA; no nanomolar binding; EMSA: 20 mM Tris pH 7.2, 80 mM NaCl, 2 mM DTT, 7.5 nM Cy5-DNA, 30 min room temperature, gel at 20 C; ITC: Tris pH 7.0, 20 C; conditions: protein: recombinant; tags: N-terminal His, cleaved (TEV or 3C); label: 5' Cy5; blunt
Smad3 MH1 domain [5] = molecular target: T2, Smad3 MH1 domain; assay: EMSA; text says GC1 oligonucleotide; EMSA: 20 mM Tris pH 7.2, 80 mM NaCl, 2 mM DTT, 7.5 nM Cy5-DNA, 30 min room temperature, gel at 20 C; ITC: Tris pH 7.0, 20 C; conditions: protein: recombinant; tags: N-terminal His-TEV, cleaved; label: 5' Cy5; blunt
[6] = molecular target: T3, Trichoplax Smad4 MH1 domain (Trichoplax adhaerens, UniProt B3S7S5 1-151); assay: EMSA; EMSA: 20 mM Tris pH 7.2, 80 mM NaCl, 2 mM DTT, 7.5 nM Cy5-DNA, 30 min room temperature, gel at 20 C; ITC: Tris pH 7.0, 20 C; conditions: protein: recombinant; tags: N-terminal His-TEV, cleaved; label: 5' Cy5; blunt
T3 sequence: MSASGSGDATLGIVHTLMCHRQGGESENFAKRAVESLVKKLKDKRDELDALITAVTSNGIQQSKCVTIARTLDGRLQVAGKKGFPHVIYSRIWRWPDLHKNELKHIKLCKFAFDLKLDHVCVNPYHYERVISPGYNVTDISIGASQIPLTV

Smad4 MH1 domain [7] = molecular target: T1, Smad4 MH1 domain; assay: NMR; pH 6.3, 100 mM NaCl, 298 K; EMSA: 20 mM Tris pH 7.2, 80 mM NaCl, 2 mM DTT, 7.5 nM Cy5-DNA, 30 min room temperature, gel at 20 C; ITC: Tris pH 7.0, 20 C; conditions: protein: recombinant; tags: N-terminal His, cleaved (TEV or 3C); blunt
Smad4 MH1 domain [8] = molecular target: T1, Smad4 MH1 domain; assay: NMR; 1 equivalent DNA; pH 6.3, 100 mM NaCl, 298 K; EMSA: 20 mM Tris pH 7.2, 80 mM NaCl, 2 mM DTT, 7.5 nM Cy5-DNA, 30 min room temperature, gel at 20 C; ITC: Tris pH 7.0, 20 C; conditions: protein: recombinant; tags: N-terminal His, cleaved (TEV or 3C); blunt
Smad4 MH1 domain [9] = molecular target: T1, Smad4 MH1 domain; assay: X-ray crystallography (2.05 A); Zn2+; EMSA: 20 mM Tris pH 7.2, 80 mM NaCl, 2 mM DTT, 7.5 nM Cy5-DNA, 30 min room temperature, gel at 20 C; ITC: Tris pH 7.0, 20 C; conditions: protein: recombinant; tags: N-terminal His, cleaved (TEV or 3C); blunt, self-complementary
Smad4 MH1 domain [10] = molecular target: T1, Smad4 MH1 domain; assay: X-ray crystallography (3.03 A); Zn2+; EMSA: 20 mM Tris pH 7.2, 80 mM NaCl, 2 mM DTT, 7.5 nM Cy5-DNA, 30 min room temperature, gel at 20 C; ITC: Tris pH 7.0, 20 C; conditions: protein: recombinant; tags: N-terminal His, cleaved (TEV or 3C); blunt, self-complementary

T1 sequence (Q13485 10-140): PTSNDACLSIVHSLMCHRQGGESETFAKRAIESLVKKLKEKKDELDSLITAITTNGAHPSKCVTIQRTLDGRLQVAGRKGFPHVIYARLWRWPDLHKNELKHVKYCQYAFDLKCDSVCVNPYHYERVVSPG
T2 sequence (P84022 1-141): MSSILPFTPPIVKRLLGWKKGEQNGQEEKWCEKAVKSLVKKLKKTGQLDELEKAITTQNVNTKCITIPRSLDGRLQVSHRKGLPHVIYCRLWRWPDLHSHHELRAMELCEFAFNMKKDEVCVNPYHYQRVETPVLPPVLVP

B1: GGCT 16mer (dsDNA)
DNA 1: TGCAGGCTAGCCTGCA
DNA 2: TGCAGGCTAGCCTGCA
B1 was tested, and the Kd (Smad4 MH1 domain [1]; self-complementary) was 250.5 ± 0.8 nM.

B2: -GGCTGCC- (dsDNA)
DNA 1: GTAACCGGCTGCCGAATG
DNA 2: CATTCGGCAGCCGGTTAC
B2: binds (Smad4 MH1 domain [2]); binds (Smad3 MH1 domain [3]).

B3: GC2_14 (CCTGGGC) (dsDNA)
DNA 1: AACCTGGGCAATTA
DNA 2: TAATTGCCCAGGTT
B3: no binding (Smad4 MH1 domain [4]).

B4: CAGAC (ITC) (dsDNA)
DNA 1: AGTCAGACGCT
DNA 2: AGCGTCTGACT
For B4, the Kd (Smad4 MH1 domain [1]) was 270.5 ± 0.1 nM.

B5: FoxH1 site (dsDNA)
DNA 1: TCTCAATCCACAATC
DNA 2: GATTGTGGATTGAGA
B5: no binding (Smad4 MH1 domain [4]).

B6: SBE / GTCT (dsDNA)
DNA 1: TGCAGTCTAGACTGCA
DNA 2: TGCAGTCTAGACTGCA
B6 gave a Kd (Smad4 MH1 domain [1]; label: 5' Cy5 in EMSA, self-complementary) of 200.3 ± 0.5 nM.

B7: GC1 core (dsDNA)
DNA 1: TTAAGGCCGGGGCCGCGCCGGGAATT
DNA 2: AATTCCCGGCGCGGCCCCGGCCTTAA
With B7 the Kd (Smad3 MH1 domain [5]) was about 100 nM and the binding result [6] was “binds”.

B8: NMR GGCTGCC duplex (dsDNA)
DNA 1: AGCCGGCTGCC
DNA 2: GGCAGCCGGCT
B8: binds (Smad4 MH1 domain [7]).

B9: NMR GGCCGCGCC duplex (dsDNA)
DNA 1: AGGCCGCGCCGA
DNA 2: TCGGCGCGGCCT
B9: binds (Smad4 MH1 domain [8]).

B10: GGCGC-XRAY-Smad4 18mer (dsDNA)
DNA 1: ATGCGGGCGCGCCCGCAT
DNA 2: ATGCGGGCGCGCCCGCAT
B10: binds (Smad4 MH1 domain [9]).

B11: GGCCG-XRAY (dsDNA)
DNA 1: ACGGGCCGCGGCCCGT
DNA 2: ACGGGCCGCGGCCCGT
B11: binds (Smad4 MH1 domain [10]).

B12: -GGCCGG- (dsDNA)
DNA 1: ATTATTGGCCGGAAAGCA
DNA 2: TGCTTTCCGGCCAATAAT
B12: binds (Smad4 MH1 domain [2]).

B13: -GGCCGC- (dsDNA)
DNA 1: ATTAGGCCGCAAAAAAAGCA
DNA 2: TGCTTTTTTTGCGGCCTAAT
B13: binds (Smad4 MH1 domain [2]).
